Patent publication US20060079445A1, “CaMKII/calcium channel binding-related compositions and methods” (priority 2004, published 2006)

Columns and labels:
[1] = target: T1, cloned L-type channels (subunit α1C77) (Homo sapiens, UniProt Q13936); test: Check for use-dependence of diltiazem block of cloned L-type channels; assay type: cell-based; details: 100 μM; same solutions and voltage protocol as granule cells
T1 construct: expressed in transfected cells; host or cells: HEK293 stably transfected with α2-δ and β1C (HEKα2β1), transiently transfected with α1C77 and GFP
Method: Dissociated cerebellar granule cells were prepared from 7-day old C57/BL6 mouse cerebella and grown in culture by a published protocol (Piedras-Renteria and Tsien, 1998; Randall and Tsien, 1995). The cerebellar granule cells were maintained in Minimal Essential Medium (Invitrogen) supplemented with 10% fetal bovine serum, glucose 5 mg/liter, transferrin 100 mg/liter, insulin 25 mg/liter, glutamine 300 mg/liter, and potassium chloride 20 mM. Cells were plated on Matrigel (Collaborative Biomedical Product) treated glass coverslips in 24-well chambers and maintained in a humidified, 37° C. incubator with […]/5% CO2. Cells were maintained for 6 to 9 days in culture prior to electrophysiological experiments. HEK293 cells stably transfected with the α2-δ and β1C subunits (HEKα2β1) were grown in Dulbecco's Modified Eagle's Medium containing 10% v/v calf serum, penicillin (100 units/ml), streptomycin (100 μg/ml), and kept under positive selection with Geneticin (400 μg/ml) while being maintained as described above. cDNAs encoding the α1C77 subunit (Zühlke and Reuter, 1998) and the green fluorescent protein were transiently transfected into HEKα2β1 cells by using the Lipofectamine2000 reagent (Invitrogen). Electrophysiological experiments were performed >24 hrs after transfection.

[2] = test system: L-type Ca^2+ currents in cerebellar granule cells; test: Patch-clamp of Ca2+-dependent facilitation of L-type currents in cerebellar granule cells; assay type: cell-based, C57/BL6 mouse; details: 2 μM peptide in patch pipette; Ca^2+ charge carrier; train of five pulses; without peptide facilitation ~50%
Method: Dissociated cerebellar granule cells were prepared from 7-day old C57/BL6 mouse cerebella and grown in culture by a published protocol (Piedras-Renteria and Tsien, 1998; Randall and Tsien, 1995). The cerebellar granule cells were maintained in Minimal Essential Medium (Invitrogen) supplemented with 10% fetal bovine serum, glucose 5 mg/liter, transferrin 100 mg/liter, insulin 25 mg/liter, glutamine 300 mg/liter, and potassium chloride 20 mM. Cells were plated on Matrigel (Collaborative Biomedical Product) treated glass coverslips in 24-well chambers and maintained in a humidified, 37° C. incubator with […]/5% CO2. Cells were maintained for 6 to 9 days in culture prior to electrophysiological experiments. […]
Cerebellar granule cells, identified on the basis of morphology and size, comprised >90% of the cells in the primary culture. […] Voltage-gated Ca^2+ and Ba^2+ currents were recorded from cells depolarized to 0 mV with five 20 ms pulses (50 ms interpulse interval) from a −90 mV holding potential. […]

[3] = target: T2, autophosphorylated α-CaMKII / α1C amino acids 1581-1690 (Rattus norvegicus, UniProt P11275); test: GST pull down of autophosphorylated α-CaMKII with α1C aa 1581-1690, peptide competition; assay type: binding; details: 40 μM peptide; 20 nM α-CaMKII
T2 construct: made in house; GST fusion proteins from bacterial lysates
Method: (B) Immunoblot with CBα2 after GST pull down of purified autophosphorylated α-CaMKII (20 nM), using α1C amino acids 1581-1690 fused to GST. Pull down assay performed in the presence of 40 μM of the indicated peptide or the peptide diluent DMSO. (C) Immunoblots with CBα2 or an anti-CaM antibody after a GST pull down assay, using α1C amino acids 1581-1690 (WT), a ^1644TVGKFY^1649→EEDAAA mutant (Mut6), or GST alone, of purified autophosphorylated CaMKII (left) or CaM (right). Top panels show a Ponceau stain of each fusion protein. […] Asterisk indicates p<0.001 for a one-way analysis of variance followed by a Dunnett's test to identify specific pair-wise differences between the means for Mut6 vs. wt and GST vs. wt, n=4-8. […] Top panels show a Ponceau stain of each fusion protein.
The binding reactions were accomplished in Tris binding buffer (50 mM Tris, 150 mM NaCl, 0.1% T-20 at pH 7.4 ml plus 0.1% BSA) containing 20 nM purified CaMKII. The total protein from the HEK293 cell lysates added to each binding reaction ranged from 9-22 μg, determined by normalizing for the amount of CaMKII activity (Singla et al., 2001). Pre-autophosphorylayion of CaMKII (purified and lysate) was accomplished at 4° C. for 5 min in Tris binding buffer plus 1 mM CaCl2, 5 μM CaM, 1 mM ATP, and 5 mM MgCl2 to restrict the sites of autophosphorylation to primarily Thr286 (Ikeda et al., 1991; Lai et al., 1987; Lou and Schulman, 1989). Final concentration of these components in the binding reaction (1:40) was 0.025 mM CaCl2, 0.125 μM CaM, 0.025 mM ATP, and 0.125 MM MgCl2. The binding reaction was rocked for 1 h at 4° C. and the beads extensively washed in Tris binding buffer (2-3× for 5 mins each). Immunoblots were performed multiple times with identical results and Ponceau staining was always performed to ensure equal loading and transfer. CaMKII binding was quantified using densiotometric measurement of band intensity using KODAK 1D Image Analysis Software (Eastman Kodak, Company). […]

T1 sequence (Q13936 1-2138 isoform Q13936-20): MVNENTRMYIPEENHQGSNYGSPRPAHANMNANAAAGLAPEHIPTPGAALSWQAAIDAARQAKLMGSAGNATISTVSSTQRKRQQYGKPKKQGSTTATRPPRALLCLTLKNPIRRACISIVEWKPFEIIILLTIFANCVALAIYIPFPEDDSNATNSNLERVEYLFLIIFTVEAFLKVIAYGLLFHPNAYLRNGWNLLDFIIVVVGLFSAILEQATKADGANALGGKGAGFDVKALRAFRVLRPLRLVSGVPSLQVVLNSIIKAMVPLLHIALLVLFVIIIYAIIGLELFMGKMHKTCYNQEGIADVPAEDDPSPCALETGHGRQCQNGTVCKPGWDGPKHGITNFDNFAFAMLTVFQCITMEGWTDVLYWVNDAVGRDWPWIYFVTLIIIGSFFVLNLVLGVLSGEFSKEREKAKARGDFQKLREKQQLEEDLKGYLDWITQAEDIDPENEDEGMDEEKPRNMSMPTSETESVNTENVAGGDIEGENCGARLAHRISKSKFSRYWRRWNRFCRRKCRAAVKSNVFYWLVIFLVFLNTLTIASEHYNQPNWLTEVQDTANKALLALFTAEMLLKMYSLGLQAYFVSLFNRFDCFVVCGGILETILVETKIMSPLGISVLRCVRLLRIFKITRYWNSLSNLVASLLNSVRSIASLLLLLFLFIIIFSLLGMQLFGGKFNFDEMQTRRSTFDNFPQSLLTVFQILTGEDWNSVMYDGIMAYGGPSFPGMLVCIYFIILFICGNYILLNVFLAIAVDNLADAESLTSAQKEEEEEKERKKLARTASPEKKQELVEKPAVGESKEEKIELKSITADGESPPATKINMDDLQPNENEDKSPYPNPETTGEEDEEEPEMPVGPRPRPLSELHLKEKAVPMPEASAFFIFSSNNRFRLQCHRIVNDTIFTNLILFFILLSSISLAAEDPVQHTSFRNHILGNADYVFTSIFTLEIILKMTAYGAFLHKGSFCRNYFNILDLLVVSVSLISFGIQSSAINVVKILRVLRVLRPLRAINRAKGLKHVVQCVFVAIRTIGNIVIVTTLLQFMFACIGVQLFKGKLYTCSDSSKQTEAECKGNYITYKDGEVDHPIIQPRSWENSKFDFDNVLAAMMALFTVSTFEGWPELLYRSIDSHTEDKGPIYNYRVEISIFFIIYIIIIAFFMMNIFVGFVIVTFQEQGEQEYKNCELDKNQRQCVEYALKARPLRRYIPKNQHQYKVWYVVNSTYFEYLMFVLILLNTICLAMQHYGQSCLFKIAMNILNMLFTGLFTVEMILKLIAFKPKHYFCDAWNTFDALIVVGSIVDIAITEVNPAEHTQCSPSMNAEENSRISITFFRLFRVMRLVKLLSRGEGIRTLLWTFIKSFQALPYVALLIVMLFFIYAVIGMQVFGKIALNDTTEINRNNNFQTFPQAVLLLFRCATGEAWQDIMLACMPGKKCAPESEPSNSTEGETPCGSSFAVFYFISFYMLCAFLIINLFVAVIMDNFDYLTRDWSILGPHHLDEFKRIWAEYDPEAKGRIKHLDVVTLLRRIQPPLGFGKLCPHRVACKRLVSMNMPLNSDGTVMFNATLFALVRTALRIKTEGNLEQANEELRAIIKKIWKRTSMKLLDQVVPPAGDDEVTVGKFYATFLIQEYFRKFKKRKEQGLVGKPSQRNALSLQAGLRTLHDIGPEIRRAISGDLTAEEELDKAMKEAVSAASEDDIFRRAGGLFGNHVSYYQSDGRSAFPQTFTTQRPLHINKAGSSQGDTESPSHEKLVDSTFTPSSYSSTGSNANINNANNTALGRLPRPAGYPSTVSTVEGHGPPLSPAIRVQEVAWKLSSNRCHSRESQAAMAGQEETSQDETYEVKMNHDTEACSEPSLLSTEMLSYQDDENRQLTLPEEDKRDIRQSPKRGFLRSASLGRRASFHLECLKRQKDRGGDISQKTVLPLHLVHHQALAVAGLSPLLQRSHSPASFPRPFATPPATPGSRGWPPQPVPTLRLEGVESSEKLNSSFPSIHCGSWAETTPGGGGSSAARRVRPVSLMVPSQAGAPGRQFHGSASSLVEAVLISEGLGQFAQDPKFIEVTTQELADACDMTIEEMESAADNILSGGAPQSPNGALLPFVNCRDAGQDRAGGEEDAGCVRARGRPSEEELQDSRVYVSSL
T1 sequence (Q02641 whole entry partner): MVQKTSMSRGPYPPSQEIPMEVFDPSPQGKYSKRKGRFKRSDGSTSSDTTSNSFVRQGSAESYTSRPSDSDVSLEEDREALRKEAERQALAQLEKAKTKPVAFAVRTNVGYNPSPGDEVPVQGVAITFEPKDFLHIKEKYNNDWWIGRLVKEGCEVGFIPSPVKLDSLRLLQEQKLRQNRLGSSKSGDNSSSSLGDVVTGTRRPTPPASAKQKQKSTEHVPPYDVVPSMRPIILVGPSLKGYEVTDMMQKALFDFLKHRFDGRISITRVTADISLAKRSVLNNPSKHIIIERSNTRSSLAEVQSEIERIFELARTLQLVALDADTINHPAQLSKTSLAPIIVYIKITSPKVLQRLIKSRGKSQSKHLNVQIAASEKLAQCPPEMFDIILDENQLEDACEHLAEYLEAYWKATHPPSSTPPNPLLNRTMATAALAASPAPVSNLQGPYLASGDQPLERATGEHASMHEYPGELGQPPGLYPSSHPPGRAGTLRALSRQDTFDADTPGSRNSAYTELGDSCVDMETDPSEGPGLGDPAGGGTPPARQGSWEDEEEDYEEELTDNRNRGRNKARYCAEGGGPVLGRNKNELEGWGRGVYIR
T1 sequence (P54289 25-946 partner limits assumed): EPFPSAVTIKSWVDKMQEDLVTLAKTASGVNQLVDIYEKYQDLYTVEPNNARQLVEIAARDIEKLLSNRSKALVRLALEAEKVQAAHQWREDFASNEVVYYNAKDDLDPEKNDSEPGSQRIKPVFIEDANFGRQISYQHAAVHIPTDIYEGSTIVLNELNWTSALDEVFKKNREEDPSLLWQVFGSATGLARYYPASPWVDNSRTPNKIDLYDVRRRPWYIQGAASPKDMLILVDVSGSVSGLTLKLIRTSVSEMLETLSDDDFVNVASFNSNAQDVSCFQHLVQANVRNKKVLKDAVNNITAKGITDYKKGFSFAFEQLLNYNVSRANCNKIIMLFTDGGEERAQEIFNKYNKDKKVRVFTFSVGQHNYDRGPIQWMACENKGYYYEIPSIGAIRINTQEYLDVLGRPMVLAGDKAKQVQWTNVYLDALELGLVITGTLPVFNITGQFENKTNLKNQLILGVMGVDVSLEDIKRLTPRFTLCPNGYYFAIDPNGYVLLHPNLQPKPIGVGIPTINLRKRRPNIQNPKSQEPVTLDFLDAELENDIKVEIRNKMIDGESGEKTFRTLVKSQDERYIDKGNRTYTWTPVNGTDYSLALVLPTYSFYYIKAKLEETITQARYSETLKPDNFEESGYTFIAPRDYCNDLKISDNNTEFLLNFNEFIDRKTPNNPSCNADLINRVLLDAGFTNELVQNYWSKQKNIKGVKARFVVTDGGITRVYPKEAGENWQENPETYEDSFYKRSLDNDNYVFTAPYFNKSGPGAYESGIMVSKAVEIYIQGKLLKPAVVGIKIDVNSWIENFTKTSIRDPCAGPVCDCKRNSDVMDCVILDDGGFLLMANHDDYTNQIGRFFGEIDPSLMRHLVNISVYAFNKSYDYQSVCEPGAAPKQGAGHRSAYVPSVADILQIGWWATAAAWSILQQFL
T1 sequence (P54289 947-1103 partner limits assumed): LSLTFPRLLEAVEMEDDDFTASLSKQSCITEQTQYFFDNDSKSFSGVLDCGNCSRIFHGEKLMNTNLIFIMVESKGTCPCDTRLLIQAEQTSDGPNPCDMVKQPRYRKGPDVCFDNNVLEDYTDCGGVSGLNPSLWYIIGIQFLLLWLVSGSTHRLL

For `COc1ccc([C@@H]2Sc3ccccc3N(CCN(C)C)C(=O)[C@@H]2OC(C)=O)cc1` [diltiazem], the “use-dependence of block of calcium currents” value [1] was “none were found”.

For “KKALRRQEAVDAL [autocamtide-2-related inhibitory peptide]”, the “decrease in peak L-type current over the course of the depolarizing pulse train” value [2] was ~25%.

For “1589-1610: ~22 aa peptide of α1C residues 1589-1610, site important for tethering of apoCaM (KRLVSMNMPLNSDGTVMFNATL; UniProt Q13936 1589-1610, looked up, fragment)”, the “interaction of autophosphorylated CaMKII with the 1581-1690 fusion protein” value (from here on “interaction of autophosphorylated CaMKII”) [3] was “not inhibited”.

With “1639-1660: ~22 aa peptide generated from α1C residues 1639-1660, contains TVGKFY (KIWKRTSMKLLDQVVPPAGDDE; UniProt Q13936 1639-1660, looked up, fragment)” the “interaction of autophosphorylated CaMKII” value [3] was “dramatically reduced”.

“1615-1636: ~22 aa peptide of α1C residues 1615-1636, site important for tethering of apoCaM (RTALRIKTEGNLEQANEELRAI; UniProt Q13936 1615-1636, looked up, fragment)” was tested, and the “interaction of autophosphorylated CaMKII” value [3] was “not inhibited”.
